{"source": "patent US20110142851A1", "about": "(EMERGENT PRODUCT DEVELOPMENT SEATTLE, published 2011)", "binders": {"B1": {"name": "recombinant human soluble IL6 receptor (receptor)", "chain": "LAPRRCPAQEVARGVLTSLPGDSVTLTCPGVEPEDNATVHWVLRKPAAGSHPSRWAGMGRRLLLRSVQLHDSGNYSCYRAGRPAGTVHLLVDVPPEEPQLSCFRKSPLSNVVCEWGPRSTPSLTTKAVLLVRKFQNSPAEDFQEPCQYSQESQKFSCQLAVPEGDSSFYIVSMCVASSVGSKFSKTQTFQGCGILQPDPPANITVTAVARNPRWLSVTWQDPHSWNSSFYRLRFELRYRAERSKTFTTWMVKDLQHHCVIHDAWSGLRHVVQLRAQEEFGQGEWSEWSPEAMGTPWTESRSPPAENEVSTPMQALTTNKDDDNILFRDSANATSLPVQD", "notes": "also called sIL6R; sIL-6R"}}, "key": {"recombinant human TNF-α [1]": {"target": "T1, recombinant human TNF-α (human, UniProt P01375 77-233)", "T1 construct": "also called rhTNFα", "T1 sequence (P01375 77-233 limits assumed)": "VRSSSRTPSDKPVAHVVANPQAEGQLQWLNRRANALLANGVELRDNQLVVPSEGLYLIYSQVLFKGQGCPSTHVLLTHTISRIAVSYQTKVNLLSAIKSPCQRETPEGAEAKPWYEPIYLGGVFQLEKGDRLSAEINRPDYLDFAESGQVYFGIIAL", "test": "sandwich ELISA, HIL-6 coated, Xceptor, then TNF-α", "experimental": "The plate was covered, and incubated overnight at 4° C. […] The absorbance of each well was read at 450 nm."}, "recombinant human IL6": {"target": "T2, recombinant human IL6 (human, UniProt P05231 30-212)", "T2 construct": "also called rhIL6; IL6 monomer", "test": "SPR Biacore T100, binder captured by anti-human Fc"}, "[2]": {"target": "T3, hu HIL6 Fc dimer (dimeric human HIL6/mouse IgG Fc fusion protein) (human)", "T3 construct": "also called human hyper-IL6 (IL6R-IL6-mIgG); dimeric HIL6", "T3 chain": "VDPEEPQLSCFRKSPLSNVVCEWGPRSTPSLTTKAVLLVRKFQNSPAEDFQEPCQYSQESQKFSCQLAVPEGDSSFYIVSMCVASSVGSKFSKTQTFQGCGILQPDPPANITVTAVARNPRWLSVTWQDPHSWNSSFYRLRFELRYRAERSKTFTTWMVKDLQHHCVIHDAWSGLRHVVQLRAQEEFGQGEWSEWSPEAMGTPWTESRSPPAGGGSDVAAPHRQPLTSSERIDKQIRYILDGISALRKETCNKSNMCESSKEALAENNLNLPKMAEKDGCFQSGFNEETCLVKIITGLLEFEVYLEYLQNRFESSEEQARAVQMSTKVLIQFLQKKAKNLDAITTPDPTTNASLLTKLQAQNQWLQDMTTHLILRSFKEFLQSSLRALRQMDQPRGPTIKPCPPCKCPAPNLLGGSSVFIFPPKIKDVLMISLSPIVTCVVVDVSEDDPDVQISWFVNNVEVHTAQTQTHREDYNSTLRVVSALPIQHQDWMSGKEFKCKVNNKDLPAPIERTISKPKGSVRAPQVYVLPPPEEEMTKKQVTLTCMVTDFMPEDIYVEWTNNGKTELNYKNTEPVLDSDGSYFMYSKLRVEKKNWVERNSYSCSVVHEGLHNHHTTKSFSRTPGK", "test": "SPR Biacore T100, binder captured by anti-human Fc", "experimental": "(§1) Binding affinities and kinetic rate constants of interaction of hyper-IL6 (HIL6; monomer or dimer), and its components IL6 and sIL6R, with different anti-HIL6 binding domains in scFv, SMIP, Xceptor and reverse Xceptor formats were determined using a Biacore® T100 instrument (GE Healthcare, Piscataway, N.J.).\n(§2) Anti-HIL6 SMIPS, Xceptors, and reverse Xceptors were captured by a monoclonal mouse anti-human Fc, which was covalently conjugated to a carboxylmethyl dextran (CM4) surface via amines using N-ethyl-N′-(3-dimethylaminopropyl)-carbodiimide hydrochloride and N-hydroxysuccinimide. The unoccupied sites of the activated surface were blocked by ethanolamine. […] In every cycle, three different HIL6 binders were captured on flow cells 2, 3 and 4, while flow cell 1 was used as the reference cell. For each cycle, a single concentration of a single HIL6-related molecule was injected for 150 seconds at 35 microliters per minute, and then allowed to dissociate for 300 seconds. At the end of the cycle, the surface was regenerated gently using 3M MgCl₂, which dissociates protein bound to anti-hFc capture antibody. Multiple cycles were performed to study binding of monomeric or dimeric HIL6 at different concentrations, in the range of 0-100 nM, for each set of three HIL6 binders captured. […] The experiment was performed at 25° C. Signal associated with binding to the reference cell was used to subtract for bulk refractive changes and blank (buffer-only) injections were used to correct for drift and system noise. The kinetic parameters and affinities were determined using BIAevaluation software. Anti-HIL6 scFv molecules were analyzed in the reverse orientation using a dimeric human HIL6/mouse IgG Fc fusion protein captured by an immobilized rabbit polyclonal anti-mouse IgG Fc antibody on the surface and injecting different concentrations of scFv over the surface. For the HIL6 components IL6 (eBioscience, catalog no. 14-8069) and sIL6R, a single 100 nM injection was performed to obtain a qualitative assessment of binding."}, "hu HIL6 AFH monomer [3]": {"target": "T4, hu HIL6 AFH monomer (human)", "T4 chain": "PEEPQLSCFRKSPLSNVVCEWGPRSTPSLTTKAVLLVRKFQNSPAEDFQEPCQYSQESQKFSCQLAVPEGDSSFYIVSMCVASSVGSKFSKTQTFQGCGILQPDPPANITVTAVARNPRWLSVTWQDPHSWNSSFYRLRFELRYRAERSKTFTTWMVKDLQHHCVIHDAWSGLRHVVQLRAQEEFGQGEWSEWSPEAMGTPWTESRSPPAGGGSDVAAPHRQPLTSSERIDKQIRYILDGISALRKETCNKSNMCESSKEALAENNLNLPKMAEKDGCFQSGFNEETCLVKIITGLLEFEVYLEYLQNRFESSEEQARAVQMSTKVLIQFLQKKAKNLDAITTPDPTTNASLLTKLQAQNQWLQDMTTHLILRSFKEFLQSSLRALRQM", "test": "SPR Biacore T100, binder captured by anti-human Fc", "experimental": "as §1, §2"}, "sIL6R Fc dimer [4]": {"target": "T5, sIL6R Fc dimer (UniProt P08887 20-358, limits assumed)", "T5 construct": "not shown: Fc", "T5 sequence (looked up)": "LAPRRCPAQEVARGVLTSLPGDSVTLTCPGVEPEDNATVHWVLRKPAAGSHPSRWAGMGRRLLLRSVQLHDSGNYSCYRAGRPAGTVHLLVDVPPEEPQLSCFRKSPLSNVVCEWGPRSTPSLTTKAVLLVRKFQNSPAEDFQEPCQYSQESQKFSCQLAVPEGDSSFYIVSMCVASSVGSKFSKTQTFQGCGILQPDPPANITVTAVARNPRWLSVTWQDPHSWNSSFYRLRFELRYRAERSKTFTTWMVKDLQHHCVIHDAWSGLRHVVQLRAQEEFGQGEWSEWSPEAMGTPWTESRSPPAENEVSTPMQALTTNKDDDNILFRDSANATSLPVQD", "test": "SPR Biacore T100, binder captured by anti-human Fc", "experimental": "as §1, §2"}, "[5]": {"target": "T3, hu HIL6 Fc dimer (dimeric human …)", "test": "SPR Biacore T100, binder captured by anti-human Fc"}, "recombinant human TNF-α [6]": {"target": "T1, recombinant human TNF-α", "test": "SPR Biacore T100, binder captured by anti-human Fc"}, "hu HIL6 AFH monomer [7]": {"target": "T4, hu HIL6 AFH monomer", "test": "SPR Biacore T100, binder captured by anti-human Fc"}, "sIL6R Fc dimer [8]": {"target": "T5, sIL6R Fc dimer", "test": "SPR Biacore T100, binder captured by anti-human Fc", "remark": "listed apart in the source"}, "[9]": {"target": "B1", "test": "ELISA, Xceptor captured by anti-human Fc"}, "TRU(XT6)-1042": {"target": "T6, TRU(XT6)-1042", "T6 construct": "Xceptor, TNFRSF1B ectodomain N-terminal, anti-IL6xR domain C-terminal", "test": "ELISA, Xceptor captured by anti-human Fc"}}, "note": "Where two headings read alike, the source gives them in different places."}
{"binder": "TRU(XT6)-1006 (Fc fusion, Xceptor, TNFRSF1B ectodomain N-terminal, anti-IL6xR domain C-terminal) LPAQVAFTPYAPEPGSTCRLREYYDQTAQMCCSKCSPGQHAKVFCTKTSDTVCDSCEDSTYTQLWNWVPECLSCGSRCSSDQVETQACTREQNRICTCRPGWYCALSKQEGCRLCAPLRKCRPGFGVARPGTETSDVVCKPCAPGTFSNTTSSTDICRPHQICNVVAIPGNASMDAVCTSTSPTRSMAPGAVHLPQPVSTRSQHTQPTPEPSTAPSTSFLLPMGPSPPAEGSTGDTGEPKSSDKTHTCPPCPAPEAAGAPSVFLFPPKPKDTLMISRTPEVTCVVVDVSHEDPEVKFNWYVDGVEVHNAKTKPREEQYNSTYRVVSVLTVLHQDWLNGKAYACAVSNKALPAPIEKTISKAKGQPREPQVYTLPPSRDELTKNQVSLTCLVKGFYPSDIAVEWESNGQPENNYKTTPPVLDSDGSFFLYSKLTVDKSRWQQGNVFSCSVMHEALHNHYTQKSLSLSPGQRHNNSSLNTRTQKARHSPNSEVQLLESGGGLVQPGGSLRLSCAASGFTFSQYNMIWVRQAPGKGLEWVSWISSSGGTEYADSVKGRFTISRDNSKNTLYLQMNSLRAEDTAVYYCAKDRGYGSGSYGAYDAFDIWGQGTMVTVSSGGGGSGGGGSGGGGSQDIQMTQSPSSLSASVGDRVTITCQTSQSIDRYLNWYQQKAGEAPKLLIYAASSLQSGVPSRFSGSGSGTDFTLTISSLQPEDFASYYCQQSYRTPRTFGQGTKVEIK", "values": [{"measurement": "binding result", "setting": "recombinant human TNF-α [1]", "result": "binds"}]}
{"binder": "TRU(S6)-1019 (Fc fusion, SMIP (scFv - linker - CH2CH3)) EVQLLESGGGLVQPGGSLRLSCAASGFTFSWYLMHWVRQAPGKGLEWVSGIWPSGGHTLYADSVKGRFTISRDNSKNTLYLQMNSLRAEDTAVYYCAREPLLWFGELSYNWFDPWGQGTLVTVSSGGGGSGGGGSGGGGSQDIQMTQSPSSVSASVGDRVTITCRASQGISSWLAWYQQKPGKAPKLLIYAASSLQSGVPSRFSGSGSGTDFTLTISSLQPEDFATYYCQQANSFPLTFGGGTKVEIKTGEPKSSDKTHTCPPCPAPEAAGAPSVFLFPPKPKDTLMISRTPEVTCVVVDVSHEDPEVKFNWYVDGVEVHNAKTKPREEQYNSTYRVVSVLTVLHQDWLNGKAYACAVSNKALPAPIEKTISKAKGQPREPQVYTLPPSRDELTKNQVSLTCLVKGFYPSDIAVEWESNGQPENNYKTTPPVLDSDGSFFLYSKLTVDKSRWQQGNVFSCSVMHEALHNHYTQKSLSLSPGK", "values": [{"measurement": "Kd", "setting": "recombinant human IL6", "result": 0.44, "unit": "nM"}, {"measurement": "Kd", "setting": "[2]", "result": 2.7, "unit": "nM"}, {"measurement": "Kd", "setting": "hu HIL6 AFH monomer [3]", "result": 2, "unit": "nM"}, {"measurement": "binding result", "setting": "sIL6R Fc dimer [4]", "result": "no binding (tested: 100 nM)"}]}
{"binder": "TRU(XT6)-1002 (Fc fusion, The entry holds a signal peptide that the mature protein lacks) LPAQVAFTPYAPEPGSTCRLREYYDQTAQMCCSKCSPGQHAKVFCTKTSDTVCDSCEDSTYTQLWNWVPECLSCGSRCSSDQVETQACTREQNRICTCRPGWYCALSKQEGCRLCAPLRKCRPGFGVARPGTETSDVVCKPCAPGTFSNTTSSTDICRPHQICNVVAIPGNASMDAVCTSTSPTRSMAPGAVHLPQPVSTRSQHTQPTPEPSTAPSTSFLLPMGPSPPAEGSTGDTGEPKSSDKTHTCPPCPAPEAAGAPSVFLFPPKPKDTLMISRTPEVTCVVVDVSHEDPEVKFNWYVDGVEVHNAKTKPREEQYNSTYRVVSVLTVLHQDWLNGKAYACAVSNKALPAPIEKTISKAKGQPREPQVYTLPPSRDELTKNQVSLTCLVKGFYPSDIAVEWESNGQPENNYKTTPPVLDSDGSFFLYSKLTVDKSRWQQGNVFSCSVMHEALHNHYTQKSLSLSPGQRHNNSSLNTRTQKARHSPNSEVQLLESGGGLVQPGGSLRLSCAASGFTFSFYQMHWVRQAPGKGLEWVSGIYPSGGYTKYADSVKGRFTISRDNSKNTLYLQMNSLRAEDTAVYYCARDLGYGSSWYYFDYWGQGTLVTVSSGGGGSGGGGSGGGGSQSALTQPASVSGSPGQSITISCSGTDSDVGGYNHVSWYQQHPGKAPKLIIYDVDHRPSGISNRFSGSKSGNTASLTISGLQAEDEADYYCSSYRSGSTYVFGTGTKVTVL", "values": [{"measurement": "Kd", "setting": "[5]", "result": 61, "unit": "nM"}, {"measurement": "Kd", "setting": "recombinant human TNF-α [6]", "result": 0.0031, "unit": "nM"}, {"measurement": "Kd", "setting": "hu HIL6 AFH monomer [7]", "result": 4.9, "unit": "nM"}, {"measurement": "binding result", "setting": "sIL6R Fc dimer [8]", "result": "no binding (tested: 100 nM)"}, {"measurement": "binding result", "setting": "[9]", "result": "no binding (tested: 75 pM sIL-6R)"}]}
{"binder": "B1", "values": [{"measurement": "binding result", "setting": "TRU(XT6)-1042", "result": "no binding (tested: 75 pM sIL-6R)"}]}
